{
  "source": "paper PMC5710141",
  "about": "(Genes & Development, 2017)",
  "binders": {"B1": {"name": "40-bp AT-rich dsDNA (dsDNA)", "DNA 1": "AAAGTAAAAAATAAAAAGTAGTTTATTTTTAAAAAATAAA", "DNA 2": "TTTATTTTTTAAAAATAAACTACTTTTTATTTTTTACTTT"}, "B2": {"name": "Mif2 core (Mif2c) dimer, Mif2 residues 256-530 (domain or fragment, budding yeast, UniProt P35201 256-530, looked up)", "chain": "NTNDNEDDYIRRQASDVVRTDSIIDRNGLRKSTRVKVAPLQYWRNEKIVYKRKSNKPVLDIDKIVTYDESEDEEEILAAQRRKKQKKKPTPTRPYNYVPTGRPRGRPKKDPNAKENLIPEDPNEDIIERIESGGIENGEWLKHGILEANVKISDTKEETKDEIIAFAPNLSQTEQVKDTKDENFALEIMFDKHKEYFASGILKLPAISGQKKLSNSFRTYITFHVIQGIVEVTVCKNKFLSVKGSTFQIPAFNEYAIANRGNDEAKMFFVQVTVS"}, "B3": {"name": "20-bp AT-rich dsDNA (dsDNA)", "DNA 1": "AAAGTAAAAAATAAAAAGTA", "DNA 2": "TACTTTTTATTTTTTACTTT"}},
  "key": {"[1]": {"biological_target": "Mif2c (Mif2 core) dimer (Saccharomyces cerevisiae (budding yeast), UniProt P35201 256-530)", "assay": "analytical ultracentrifugation"}, "[2]": {"biological_target": "the molecule itself", "assay": "AUC"}, "[3]": {"biological_target": "Mif2 DHBD (Saccharomyces cerevisiae (budding yeast), UniProt P35201 256-365)", "assay": "analytical ultracentrifugation"}},
  "data": [
    {"binder": "B1", "values": [
      {"measurement": "binding result", "setting": "[1]", "value": "binds"}
    ]},
    {"binder": "B2", "values": [
      {"measurement": "stoichiometry N", "setting": "[2]", "value": 2}
    ]},
    {"binder": "B3", "values": [
      {"measurement": "binding result", "setting": "[3]", "value": "binds"}
    ]}
  ]
}
